From the supplement of paper PMC9170038

Tested on: MS2 coat protein
Assay: apparent KD of MS2 coat protein; designed switch direction (-1 OFF switch, 1 ON switch): -1; higher = weaker reporter binding
Outline: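 For each design, the apparent KD is the median over clusters of curves fitted to normalised cluster fluorescence. Clusters held RNA switches with common flanks, transcribed on Illumina chips by stalled E. coli RNA polymerase. These were titrated with SNAP-549-labelled MS2 coat protein, doubling from 0.7 or 1.5 nM to 3 µM, without input, with 200 uM small-molecule ligand, or with an oligonucleotide input.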

[1] = input ligand: microRNA oligo, concentration not stated
[2] = Eterna round: R95, input ligand: FMN 200 uM
[3] = Eterna round: R95, input ligand: microRNA oligo, concentration not stated
[4] = Eterna round: R95, input ligand: none

CUUGCGGAUAAAGGAUAUUGCGGUGACCGGCUCGGCGUACCGAGCCUACAUGAGGAUCACCCAUGUAAGAAGGUUGUCGCUGGU [JL ViennaUCT Qudice mod 3] (Eterna round: R96, puzzle: Exclusion NG 2)
apparent KD of MS2 coat protein (input ligand: FMN 200 uM): 12.9 nM | apparent KD of MS2 coat protein [1]: 8.45 nM | apparent KD of MS2 coat protein (input ligand: none): 14.1 nM

UUUAGUUCAGGAUAUGAUGAAUUAUACAUGAGGAUCACCCAUGUAGAUCCUGAAUUAACAUCAGAAGGGAACAUUU [JL-ex5-4.46 Brourd mod] (Eterna round: R97, puzzle: Exclusion 5)
apparent KD of MS2 coat protein (input ligand: FMN 200 uM): 23 nM | apparent KD of MS2 coat protein (input ligand: none): 16.4 nM

GGGCCCGGAGGAUAUACAUGAGGAUCACCCAUGUAGGGCCCGGGUAUUCCCGGGUUUUGUAGAAGGCCGGGUUU [-33.8, -30.7 kcal, A 19%, 5a,5a] (Eterna round: R97, puzzle: Exclusion 3)
apparent KD of MS2 coat protein (input ligand: FMN 200 uM): 25.1 nM | apparent KD of MS2 coat protein (input ligand: none): 14.8 nM

AGCGAAUAGCUAGGAUAUGAGAAUAGAUAGAGCUCAGAAGGAGCACAUGAGGAUCACCCAUGUAAAGUCUUGAGGCUGCGUGGU [Prohibition 16 - Jieux - Exclusion NG 1] (Eterna round: R96, puzzle: Exclusion NG 1)
apparent KD of MS2 coat protein (input ligand: FMN 200 uM): 79.5 nM | apparent KD of MS2 coat protein [1]: 27.2 nM | apparent KD of MS2 coat protein (input ligand: none): 66.3 nM

UAUUAGCAAGUGAGAUCCCACAUGAGGAUCACCCAUGUGCUCGUCUUAUAAGGUACUGUGACGAGAGUCACGGUACC [Mat - Sensor, turn-off var - Eli Mod - D2] (Eterna round: R97, puzzle: Sensor, turn-off variant 1)
apparent KD of MS2 coat protein (input ligand: FMN 200 uM): 46.1 nM | apparent KD of MS2 coat protein (input ligand: none): 44.7 nM

UUUUAGAGAGGAUAUAUGAUGUGAAACAUGAGGAUCACCCAUGUAAUAUUAUGGAUGUAAAUAGAAGGCUCAUUUA [JL-ex5-3.05] (puzzle: Exclusion 5)
apparent KD of MS2 coat protein [2]: 38.8 nM | apparent KD of MS2 coat protein [3]: 63.3 nM | apparent KD of MS2 coat protein [4]: 69.1 nM

UCACGGGACUGAGGAUAUACAUGAACCAUUUUUGUAGAAGGCAGAAUGUUUGAUCAUACACUAAACAUGAGGAUCACCCAUGUU [JR_ExcNG1_Sub026] (Eterna round: R96, puzzle: Exclusion NG 1)
apparent KD of MS2 coat protein (input ligand: FMN 200 uM): 16 nM | apparent KD of MS2 coat protein [1]: 16.3 nM | apparent KD of MS2 coat protein (input ligand: none): 20.1 nM

GAUUGACAUGAGGAUCACCCAUGUGAGGAUAUCGGCUGGACCGUGUUGGCUUCCGUUUCGAGAAGGCGCAUAGG [Exclusion 1 V44] (puzzle: Exclusion 1)
apparent KD of MS2 coat protein [3]: 23.2 nM

AGGUCCUUCUGGACACAUGAGGAUCACCCAUGUGAGGUCAGCGAGGAUAUCGGUCAAUAAUGUGACGAGAAGGCGCGGACCGAU [Ex NG3 #58] (Eterna round: R96, puzzle: Exclusion NG 3)
apparent KD of MS2 coat protein (input ligand: FMN 200 uM): 31.6 nM | apparent KD of MS2 coat protein [1]: 14.8 nM | apparent KD of MS2 coat protein (input ligand: none): 19.1 nM

UUGUACCGGUGAGGAUAUUUUUAAUAGAGCUUUAUGAUAUACAUGAGGAUCACCCAUGUUACUUUAAAGAAGGCAUCGGAUUAU [JL JR Sub091 mod 3] (Eterna round: R96, puzzle: Exclusion NG 2)
apparent KD of MS2 coat protein (input ligand: FMN 200 uM): 14.9 nM | apparent KD of MS2 coat protein [1]: 12 nM | apparent KD of MS2 coat protein (input ligand: none): 20.6 nM

GAUAAGGUAGGAUAUACGAAUAAAAAGGGUAGAAGAAGAACACAUGAGGAUCACCCAUGUAGAAGGACCAAUAG [Mat - Exclusion 2 - Mod of my Tesla design - D24] (puzzle: Exclusion 2)
apparent KD of MS2 coat protein [2]: 37.9 nM | apparent KD of MS2 coat protein [3]: 19.7 nM | apparent KD of MS2 coat protein [4]: 16.5 nM

CUCCUACUUGUAGGAUAUCAGAGAUAACAUGAGGAUCACCCAUGUUGGGUCAUCAACUCAGUCGGUGAGAAGGACAGAAGUUGG [Eternabot solution 42] (Eterna round: R96, puzzle: Exclusion NG 2)
apparent KD of MS2 coat protein (input ligand: FMN 200 uM): 96.1 nM | apparent KD of MS2 coat protein [1]: 68.6 nM | apparent KD of MS2 coat protein (input ligand: none): 63.2 nM

CGUGCGUAUGUGAGGAUAUGCUGGUCCUUGGAUCAGCAGAAGGCACAUGAGGAUCACCCAUGUGGUGUCGUACU [salish99_Bmod_Ex4_017] (puzzle: Brourd's mod of Exclusion 4)
apparent KD of MS2 coat protein [3]: 161 nM

ACUCAACAUGAGGAUCACCCAUGUCAGGAUAUCUCUAUUUUGCGCGGGAGCAGAAUAGAGAGAAGGGACAACCU [Eternabot (Original) Solution 3] (Eterna round: R97, puzzle: Exclusion 1)
apparent KD of MS2 coat protein (input ligand: FMN 200 uM): 91.2 nM | apparent KD of MS2 coat protein (input ligand: none): 42.8 nM

AUCAUGAUAGGAUAUACAUGAGGAUCACCCAUGUCCCACCCGUUACUUCUGGCCCUUUGUAGAAGGAUCGUCAA [Exy#21] (Eterna round: R97, puzzle: Exclusion 3)
apparent KD of MS2 coat protein (input ligand: FMN 200 uM): 22.2 nM | apparent KD of MS2 coat protein (input ligand: none): 26.8 nM

AAAAAGAGAGGAUAUACAACAAAACAAAACAAAACAAACACACAUGAGGAUCACCCAUGUAGAAGGCUCGAAAA [Exclusion 2 #2] (puzzle: Exclusion 2)
apparent KD of MS2 coat protein [2]: 25.1 nM | apparent KD of MS2 coat protein [3]: 16.5 nM | apparent KD of MS2 coat protein [4]: 19.3 nM

GGGCUGGGAGGAUAUUCGUUUGGAGACAUGAGGAUCACCCAUGUGAUGCGAGGGAAGUCCGGAGAAGGCUCGGUUC [-24.8, -21.2 kcal, 22% A] (Eterna round: R97, puzzle: Exclusion 5)
apparent KD of MS2 coat protein (input ligand: FMN 200 uM): 24 nM | apparent KD of MS2 coat protein (input ligand: none): 15.9 nM

CCCGCACGAGUUAGGAUAUCAUUUGUCGAGAUAGGUGAGAAGGAACUUGAGGAUCACCCAAGUGUCCCGGGAAA [Maquso] (Eterna round: R97, puzzle: Brourd's mod of Exclusion 4)
apparent KD of MS2 coat protein (input ligand: FMN 200 uM): 37.5 nM | apparent KD of MS2 coat protein (input ligand: none): 20.1 nM

AUUUAAUUUAAUAAGAUCACAUGAGGAUCACCCAUGUUAUAAUAGGAUAUCAGCUCGUUUAGAGCUGAGAAGGAUUAUAACAUG [ExNG3/9-A2] (Eterna round: R96, puzzle: Exclusion NG 3)
apparent KD of MS2 coat protein (input ligand: FMN 200 uM): 31.8 nM | apparent KD of MS2 coat protein [1]: 20.8 nM | apparent KD of MS2 coat protein (input ligand: none): 7.21 nM

UAUCGCAAGCGAAGAUCCCACAUGAGGAUCACCCAUGUGCUCGUCUUAUAAGGUACUGUGACGAUAGUCACGGUACC [Mat - Sensor, turn-off var - Eli Mod - D77] (Eterna round: R97, puzzle: Sensor, turn-off variant 1)
apparent KD of MS2 coat protein (input ligand: FMN 200 uM): 33.6 nM | apparent KD of MS2 coat protein (input ligand: none): 24.9 nM

AAAAGGCUAGGAUAUACAUGAGGAUCACCCAUGUGUACUGGACAUGCGGUAUGCGUAUGUAGAAGGAGUAUAAA [Inaisor] (puzzle: Exclusion 3)
apparent KD of MS2 coat protein [3]: 14.2 nM

UUUAAAACAUAGGAUAUCGAAUAAAUCAUUUAACGAGAAGGAUGAACAUGAGGAUCACCCAUGUGGUAUCAUGG [Mat - Exclusion 6 - JL Mod - D20] (puzzle: Exclusion 6)
apparent KD of MS2 coat protein [2]: 219 nM | apparent KD of MS2 coat protein [3]: 183 nM | apparent KD of MS2 coat protein [4]: 207 nM

UUAUAUAGUGUGAGGAUAUGCUGGUCCUUGGAUCAGCAGAAGGCACAUGAGGAUCACCCAUGUAAUAUAUUAUU [JL bmx4 3.07] (puzzle: Brourd's mod of Exclusion 4)
apparent KD of MS2 coat protein [3]: 58.2 nM

ACUUAUUGAGGAUAUACAUUAAUUUACAUGAGGAUCACCCAUGUUCUUCAAUGUAUAUAUGUAGAAGGCAGAAGAA [JL-ex5-4.30 Malcolm mod] (Eterna round: R97, puzzle: Exclusion 5)
apparent KD of MS2 coat protein (input ligand: FMN 200 uM): 29.3 nM | apparent KD of MS2 coat protein (input ligand: none): 14 nM

CCUCCCUGAGGAUAUCCACCCUCAUACAUGAGGAUCACCCAUGUUCAUCCGUGGGUACCCGGAGAAGGCAGCUCUC [Megrez-c] (Eterna round: R97, puzzle: Exclusion 5)
apparent KD of MS2 coat protein (input ligand: FMN 200 uM): 80.8 nM | apparent KD of MS2 coat protein (input ligand: none): 86.7 nM
